Results: patent US7462472B2 (priority 2001, dated 2008)

Assays:
[1] = target: CaM34/110-AEDANS/DAB, human CaM mutant [change]/[change] labeled with donor and acceptor (human) (UniProt P0DP23); experiment: fluorescence (FRET) titration of donor-acceptor labeled CaM34/110 with CyaA1-412
CaM = CaM (Homo sapiens, UniProt P0DP23, T111C/T35C); experiment: biochemical; type: binding

CyaA1-412, adenylyl cyclase domain (amino acids 1-412) of CyaA, sequence (J7QLC0 1-412): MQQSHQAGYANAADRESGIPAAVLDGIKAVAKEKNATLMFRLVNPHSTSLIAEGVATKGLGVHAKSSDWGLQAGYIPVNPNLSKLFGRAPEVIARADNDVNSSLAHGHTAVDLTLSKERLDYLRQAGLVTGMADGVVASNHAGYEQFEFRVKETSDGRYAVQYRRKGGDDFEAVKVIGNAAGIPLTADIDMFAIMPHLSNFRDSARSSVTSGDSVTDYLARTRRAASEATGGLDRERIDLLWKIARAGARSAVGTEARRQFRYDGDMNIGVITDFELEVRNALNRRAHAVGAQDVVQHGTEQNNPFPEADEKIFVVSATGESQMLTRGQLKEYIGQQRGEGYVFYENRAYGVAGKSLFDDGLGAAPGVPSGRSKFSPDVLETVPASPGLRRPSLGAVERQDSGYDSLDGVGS

| Compound | Kd [1] [µM] | Kd (CaM) [µM] |
| --- | --- | --- |
| CyaA1-412, adenylyl cyclase domain (amino acids 1-412) of CyaA (from UniProt J7QLC0 1-412) (enzyme) | 10 |  |
| CC[C@H](C)[C@H](NC(=O)CNC(=O)[C@H](Cc1ccc(O)cc1)NC(=O)[C@H](CCCCN)NC(=O)[C@@H](NC(=O)[C@H](CC(C)C)NC(=O)[C@H](CC(C)C)NC(=O)[C@H](CC(N)=O)NC(=O)[C@@H](NC(=O)[C@@H](NC(=O)CNC(=O)[C@H](CCCCN)NC(=O)[C@H](CCC(N)=O)NC(=O)[C@H](CCCCN)NC(=O)[C@H](CCC(=O)O)NC(=O)[C@H](CC(C)C)NC(=O)[C@H](CO)NC(=O)[C@@H](N)CC(N)=O)C(C)C)[C@@H](C)O)[C@@H](C)CC)C(=O)N[C@@H](CCC(=O)O)C(=O)O [helix H peptide] |  | 8.8 |
